From article PMC4148199, “Multiple Regulation of Rad51-Mediated Homologous Recombination by Fission Yeast Fbh1” (PLoS Genetics, 2014)

Columns and labels:
[1] = biological target: T1, complex of 3FLAG6His-Fbh1 and 6His-Skp1 (S. pombe, UniProt Q9USU3 1-878; Q9Y709 1-161); experiment: co-IP; in vitro; 0.5 µg of each purified protein mixed in 10 µl 25 mM Tris-OAc pH 7.5, 100 mM KCl, 0.5% NP40, 3 mM Mg-acetate, 10 min room temperature then 20 min 4°C; M2 anti-FLAG antibody and Dynabeads Protein G; western blot with anti-Rad51, anti-Sfr1 or anti-M2; conditions: both partners purified
T1 construct: Fbh1 (F-box DNA helicase-1), Schizosaccharomyces pombe; Skp1, Schizosaccharomyces pombe; also called FLAG-His-tagged Fbh1-Skp1; Fbh1-Skp1 complex; source: insect cells, baculovirus co-infection, purified as a complex
T1 sequence (looked up) 1: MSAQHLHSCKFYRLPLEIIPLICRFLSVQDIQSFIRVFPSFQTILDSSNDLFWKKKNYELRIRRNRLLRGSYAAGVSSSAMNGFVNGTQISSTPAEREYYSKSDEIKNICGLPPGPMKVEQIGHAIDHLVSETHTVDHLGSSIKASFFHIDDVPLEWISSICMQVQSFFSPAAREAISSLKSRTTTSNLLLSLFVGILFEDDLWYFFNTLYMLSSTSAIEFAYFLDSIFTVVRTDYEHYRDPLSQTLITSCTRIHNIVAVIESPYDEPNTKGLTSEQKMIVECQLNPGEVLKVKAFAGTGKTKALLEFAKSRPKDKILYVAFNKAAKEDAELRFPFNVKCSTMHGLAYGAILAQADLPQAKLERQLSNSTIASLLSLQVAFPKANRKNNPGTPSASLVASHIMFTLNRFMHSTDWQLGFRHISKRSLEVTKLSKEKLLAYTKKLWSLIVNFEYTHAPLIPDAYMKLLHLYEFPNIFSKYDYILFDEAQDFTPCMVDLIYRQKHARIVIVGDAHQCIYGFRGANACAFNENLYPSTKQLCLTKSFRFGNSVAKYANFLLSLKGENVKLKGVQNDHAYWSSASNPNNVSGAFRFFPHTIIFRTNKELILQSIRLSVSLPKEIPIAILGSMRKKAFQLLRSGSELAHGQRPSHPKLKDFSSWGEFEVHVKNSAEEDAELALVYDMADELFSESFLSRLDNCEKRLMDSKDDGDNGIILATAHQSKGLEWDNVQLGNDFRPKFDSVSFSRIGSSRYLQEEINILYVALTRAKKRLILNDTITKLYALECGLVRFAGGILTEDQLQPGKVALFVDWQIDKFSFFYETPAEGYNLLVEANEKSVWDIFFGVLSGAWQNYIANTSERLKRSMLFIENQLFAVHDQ
T1 sequence (looked up) 2: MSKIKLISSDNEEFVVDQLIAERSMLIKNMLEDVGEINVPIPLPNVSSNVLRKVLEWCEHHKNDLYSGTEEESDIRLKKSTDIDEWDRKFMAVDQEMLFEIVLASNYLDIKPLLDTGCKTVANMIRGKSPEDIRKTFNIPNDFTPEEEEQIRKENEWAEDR

Fbh1;Skp1 = biological target: T2, Fbh1;Skp1 (Schizosaccharomyces …, UniProt Q9USU3;Q9Y709 1-878;1-161, |); experiment: EMSA; 3 mM Mg-acetate; preferred substrate; EMSA: 25 mM Tris-acetate pH 8.0, 1 mM DTT, 3 mM Mg-acetate, 5% glycerol, 100 mM KCl, 10 nM DNA, 30 C 10 min; ssDNA beads: 30 mM Tris-HCl pH 7.5, 1 mM DTT, 100 mM NaCl, 3.5 mM MgCl2, 5% glycerol, 0.25% Tween 20, ATP regeneration system, 37 C; conditions: protein: recombinant;recombinant; tags: 6His;6His; copies: 1;1; label: 32P
T2 sequence 1: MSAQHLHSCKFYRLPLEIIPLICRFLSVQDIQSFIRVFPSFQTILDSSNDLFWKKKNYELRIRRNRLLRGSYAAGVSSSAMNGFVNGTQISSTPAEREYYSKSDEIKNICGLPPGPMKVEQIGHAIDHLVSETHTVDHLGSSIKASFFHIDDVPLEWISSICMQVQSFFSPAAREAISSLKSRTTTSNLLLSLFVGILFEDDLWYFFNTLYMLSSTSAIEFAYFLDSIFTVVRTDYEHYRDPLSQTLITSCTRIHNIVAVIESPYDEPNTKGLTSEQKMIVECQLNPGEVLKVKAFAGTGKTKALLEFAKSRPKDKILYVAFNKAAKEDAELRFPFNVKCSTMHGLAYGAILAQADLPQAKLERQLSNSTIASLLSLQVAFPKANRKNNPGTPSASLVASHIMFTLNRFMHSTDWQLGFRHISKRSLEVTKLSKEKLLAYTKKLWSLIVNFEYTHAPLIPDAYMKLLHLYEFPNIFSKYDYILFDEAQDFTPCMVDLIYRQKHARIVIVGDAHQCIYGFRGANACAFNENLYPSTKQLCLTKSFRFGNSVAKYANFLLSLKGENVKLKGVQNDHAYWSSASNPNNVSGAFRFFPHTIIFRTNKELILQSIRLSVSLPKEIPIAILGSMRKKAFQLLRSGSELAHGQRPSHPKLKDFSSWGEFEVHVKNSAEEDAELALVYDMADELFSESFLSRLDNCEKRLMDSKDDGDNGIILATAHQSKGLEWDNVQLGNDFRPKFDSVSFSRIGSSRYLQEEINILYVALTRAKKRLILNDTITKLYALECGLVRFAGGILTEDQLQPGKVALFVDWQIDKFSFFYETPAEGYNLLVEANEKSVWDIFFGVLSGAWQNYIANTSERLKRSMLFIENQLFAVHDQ
T2 sequence 2: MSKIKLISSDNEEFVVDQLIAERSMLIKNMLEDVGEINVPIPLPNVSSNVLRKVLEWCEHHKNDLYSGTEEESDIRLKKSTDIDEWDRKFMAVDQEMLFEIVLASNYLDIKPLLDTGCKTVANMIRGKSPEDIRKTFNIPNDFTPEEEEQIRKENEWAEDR

Binder | binding result [1] | binding result (Fbh1;Skp1)
Rad51 (natural protein, S. pombe, UniProt P36601 1-365, looked up, Rad51 recombinase, Schizosaccharomyces pombe; also called SpRad51) MADTEVEMQVSAADTNNNENGQAQSNYEYDVNVQDEEDEAAAGPMPLQMLEGNGITASDIKKIHEAGYYTVESIAYTPKRQLLLIKGISEAKADKLLGEASKLVPMGFTTATEYHIRRSELITITTGSKQLDTLLQGGVETGSITELFGEFRTGKSQICHTLAVTCQLPIDMGGGEGKCLYIDTEGTFRPVRLLAVADRYGLNGEEVLDNVAYARAYNADHQLELLQQAANMMSESRFSLLVVDSCTALYRTDFSGRGELSARQMHLARFMRTLQRLADEFGIAVVITNQVVAQVDGISFNPDPKKPIGGNILAHSSTTRLSLRKGRGEQRICKIYDSPCLPESEAIFAINSDGVGDPKEIIAPV | binds | –
AGCTATGACCATGATTACGAATTGCTTGGAATCCTGACGAACTGTAG (ssDNA) [F3-d47 (47-mer ssDNA)] | – | binds
